Laboratory results from a protein production outcome set (Wang et al. 2014).

Assay: label from the status in PepcDB records

MFGTPSSSPSFGTPSSTPAFGTSSPAFGTPSATPAFGTPSNPSFSSGGFGSSLFSSPFSSQQPQQQQQQQQQQQPSSLFQQQPSSNFGFQSPFNNTAQQQQQTPFPNAQLTTQMAPVAPIPYSLADRDVQAIIEAYKEDPTNPKYAFQHLLFSVTEPQYRVKPAAVSDIMWAEAMSKLEGMDSTERERLWPQLVQGFKDLSQRLKLQDEVLVSDRDRIKTTQSNVKMLQRHLQASTFPSIERLRQKEQSLQRRMLRVMRIIEGLEGKGFRLPLTKGEAELSEKLTAITRQVKGPGAELSRRVQSLQTISRAQANSIAAGSSLYLPGSTKIDEQSLIDMQEVLQQETEAIGRLGNVLKRDMRDMEIMVAEDTEMALDS
protein production: failed

MTYELSTDREFDLIAIGRACIDLNAVEYNRPMEETMTFSKYVGGSPANIVIGSSKLGLKAGFIGKIADDQHGRFIESYMRGVGVDTSNLVVDQEGHKTGLAFTEIKSPEECSILMYRQDVADLYLSPEEVNEAYIRRSKLLLVSGTALSKSPSREAVLKAIRLAKRNDVKVVFELDYRPYSWETPEETAVYYSLVAEQSDIVIGTREEFDVLENRTEKGDNDETIRYLFKHSPELIVIKHGVEGSFAYTKAGEAYRGYAYKTKVLKTFGAGDSYASAFLYALISGKGIETALKYGSASASIVVSKHSSSDAMPSVEEIEALIEKDETITIA
protein production: not failed

MVYFYPINDSRWYTFIHLFLYCKALKLLVVPNSKGVSPIFNQITIHNQHTENWLIIGLFCGAFVTGADAFIISALLPAIATSLHVPTNTAAYGVTVYALCYAIGAPLFGPLGDRFNKRFLLIRGCGIFLLGTLLCGLANSLLTFYLYRAIAGIGAALFVPNIWAFIGTYFNGQRLNQVMGIVMSALSLSIATGVPLGALLAQLSSWHMAFWGSAMLTLIALSILTIAIPSLPSQNAQPDGYFTSFKTLVHTPHAIAALLITLTWMTGFYGVYTFLGVFATATFHFNTMQTGLIFITYGSANFVASFFAGKLISLLGKKQSVTINGLVSATLVLSLGIWGQHLAVLLIILVVLALSQGWGVTALTATIVNIVPSNRSTIMSFNSAFLYYGLTLGSAAGGLLLTKIGFYAVTIAAATALLVAVLIANALSHYSD
protein production: failed

MHVAVRRSNTPHPLSSLRHDIVIEPLEEERPPSRFGYDMAGKALSVQPTIDPSAKLHETRLGAYTEVGARTILHEVTMGDYSYVVNDSQITYTTIGKFCSIAAMTRINPGNHPMHRATQAHFTYRSSAYFPGESDDTEFFDWRRQHHVHIGHDVWIGHGAIVLPGRNIGTGAVIAAGAIVTKDVPAYTIVAGNPARIVRRRFSEEIAGRLARLAWWDWDHDKLREALPDFRRLGIEDFLSTYEARAHSPVSKRSAVA
protein production: failed

EQYGDLPPRVFECRLAMVQPSSVVSGNNRWSTAANDMLKTVAQCGLIDIEVYSLFNNVAAVLIHMRDGIINDKLVELMLCRRSDEDYMSRKDHDFRLRRQ
protein production: failed

MKIGIMSDTHDHLPNIRKAIEIFNDENVETVIHCGDFVSLFVIKEFENLNANIIATYGNNDGERCKLKEWLKDINEENIIDDFISVEIDDLKFFITHGHHQSVLEMAIKSGLYDVVIYGHTHERVFEEVDDVLVINPGECCGYLTGIPTIGILDTEKKEYREIVLE
protein production: not failed

MAKKSTRTTPEDSQASTTDSAATSTASEATQAATSATDDQAEQTTAVDPTQQITDLKAQLDAKDDQLLRAQAEIVNMQNRNKKEQAALLKYDGQALAKDVLPVLDNLERALATPADDEAAQQLKKGVEMVYGHLQDALKKHGVTEVAAAGEKFDPNIHQAVQTVPVDDDHPADTVVQVLQRGYLLKDRTLRPAMVVVAQ
protein production: failed

MLETLMYGAISALVFGTVLPLLYRSKNIRKASSGLSLLSSILLLGFAGIILYTRTEPVFPVTGFLPGAGFTLSADRLAAGFILLIGAVVPGVSIYSVEYVEHAKSEARKSLQASLTNLFILAMLMVILAGNMVSFLVFWEIMSLSSLLLVLHDYSSEENKKAGFFYFVMTNISTAFLFVGFISLFRLTGSADFGPLEYPAADLALPFIFLFIGFGVKAGLVPFHKWLPYAHPAAPSSVSALMSGVMLKVAVYGFLRFLLSVSAPELWWGVLILTAGSISALFGVIYALKENDIKRMLAYSSIENIGIIFTGIGLYAVFKVEGLESLALLSLVGACFHAFNHAVFKSLLFLCAGSVVHATGTRKIEAFGGLVKSMPVTSALFLIGSVSIAAMPPTNGFAGELLLYQAFFQSFAVTDPLLNIFLIIALSSFALTGALAAALFVKLFGITCLAIPRSEKSRLAEEVQKPMLVGPAVPAAFCILGGLFSKQLLSLAGWKIDFPDLLLLGILLGLIYTALFVIIRSKETGPARISETWGCGIPALAPYMEYSSAGFSEPLVMIFKSIYRTKIVNRPEYFDEKESLFKNGKVEIRLLRFFEEYLYIPPARAIDIFSKYVSKLQNGKLDSYVLYAFLAVIVLIIATGGFV
protein production: failed

MRNKDNQHSRLYYIILTIVIIAICVVVVILFNTLKTNRSHSTDRYADFTELKKDTIKNKDWRIKTKHRKNKDILVTAIHGGGIEPGTTEIARRISNVGKYNFYTFEGLRKSNNDQLHVTSTQFNEPILDKLLKNTKETLSIHGFSGDDPIVYIGGKDKEMSHSITKELRKKDFTVKESPNKIDAKSSDNIANKNESNSGVQLELTTALRKQFFKHYKLDRHTRSDSDKYTKDFYKFANAVQKGIEKVNLEHHHHHH
protein production: not failed

MIREKALEFHKNNFPGNGKIEVIPKVSLESREELTLAYTPGVAEPCKEIARDPGKVYEYTSKGNLVAVVSDGSRILGLGNIGPLAGLPVMEGKALLFKRFGGVDAFPIMIKEQEPNKFIDIVKAIAPTFGGINLEDIASPKCFYILERLREELDIPVFHDDQQGTAAVVLAGLLNALKVVGKKISEITLALFGAGAAGFATLRILTEAGVKPENVRVVELVNGKPRILTSDLDLEKLFPYRGWLLKKTNGENIEGGPQEALKDADVLISFTRPGPGVIKPQWIEKMNEDAIVFPLANPVPEILPEEAKKAGARIVATGRSDYPNQINNLLGFPGIFRGALDVRARTITDSMIIAAAKAIASIVEEPSEENIIPSPLNPIVYAREARAVAEEAMKEGVARTKVKGEWVEEHTIRLIEFYENVIAPINKKRREYSKAITRA
protein production: not failed

MPAPTHGCPLPRFSVIVPAYKVQAYLHECLESVLEQSFPDLELIAVDDCSPDACGAIIDEFAARDTRVRPVHLPQNTGLGRARNAALAEATGDYLIFLDADDSLTPGALQAVADRIKETSEPDVLVYDYARTFWSGETVRNREAGQLTEQGPAPFRLDDRPGLLNVLMVVWNKAYRREFVEREGFTFPPGLYEDTPWTYPALMAAETVATLDRVCVHYRQRRRGNILGTTGRGHFDIFGQYDRVFAYLDGHPELAHWRPVLFRRMVDHVATVFTRRGRLPRGSHAEFLRRARAHYRRHRTPGPPARPRFRLRHVLVRLGSHRTYRLLSLASRTRVRTARSATAVLGRLAGVALQAHYRLQRRLPVRADRAVFASHQGQGHGCNPGALEAAFRTLAPHIRTAWIARPEHHHTVPAATRRVRPGSAAYWTALARSKYLVSNADFDRRLRKRPGQIVIQTHAGTPLKRMGLDLQDRPAAARDTDFAQVLRGADQWDYCLSANRHSTLVWERVFPSGFTTLEYGQPRNDRFQQATSADVTRLRESLGIPHGSVAILYAPTYRDYRRSQRHLLDLERVLRQLGPRYVVLTRAHPSYGAPLTRSDGARLIDVSGHPSVESLCLASDALVTDYSSLMFDYANLDRPIVVYADDWEAYEAARGTYFDLRAFPPGAVARTEEELIDIFATGHWRGSRAAQLRAAFRARFCPYDDGRAAERVVRRIVLGEGAREGERNSEGDGGATGLPPVVPLAGRHPVPSAAAALARPPLATVPHPAGPVPVVDSP
protein production: failed

MTFHWKDLTPWRRIKGVAITILYLLFCIWAGPFWLIFLPLIVDYYFFHIIKWGWYKNIRNKTLRIICSWVADIIYCVVAVTFIFAFLFQNFAIPTSSLEKTLLIGDYLFVSKLSYGPRSPMTPLGVPLTHNTMPLTGGKSFSDKPLLPYKRLKGFGHVKEGDLVVFNFPAGDTVAVKQPNPDYYMWKKLVGREELWSNPDFYGEIVYRPVDRRDHYVKRCVGMPGQELSIRNNQIYIDGKEQRNPRNMQLNYLVRMSREMSVDLIDELGISYDDVRAASSEELKASVGSNLIDSASNQPQIIYHLPLTQGMLDKLQAEPSFVKAVEEPTPIGPLYPLEYETGWTRDNYGPIVIPAKGMTVRLTPLNLALYSRCIRNFEGNKLVQKADGTVLINGRPADSYTFKMDYYFMMGDNRHNSADSRYWGFVPEDHIVGKPVFIWLSLNKDKSLFGGKIRFGRMMRTVNAD
protein production: failed

MKAIIMAGGQGKRLRPLTCNLPKPMMPIMQKPVLQYIIELLKKHGINEIGITLHYLPDEVMDYFGDGKELGVNIHYFIEQSPLGTAGSVRNAESFLDETFVVISGDALTDVNLTNILQYHKEKNAMVTIVLKKVTIPLEYGVAITDTEGRISNFIEKPGWGEIFSDKANTGIYVMEPGIFEFYNKDKKFDFSEELFPELLKSGKEIFGYVVNDYWRDIGNIEQFMKCNFDILNGYVDVDVDIDASQHQKGVWIGKNTIVSDNVKVIPPVYIGDNSEIRYGAEIGPFAVIGRNNIISEMATIKRSIIFENCYIGSGAELRGSVVSNNVQVGGGVSTFEESAIGTGSLVGEKSVVKAGVKIWPDKVIGSKTIIKTNVVWGENRCKVLFGKEGISGEINVELTPEFVSKLASAFASNLRMNSKVVVCSDYNLAAEMLKYSFVSGLISMGIEVYSAKEMTIPMLRFSTAYFKADAAVYIYCKGSNKEKVNILFIDKDGIMISRSMEKKIANSFLREDFRRTRANNFKRLRDFGECMGYYEDYIKENLCIQEIRNSGLKVAVSMENKLIKNEVKSIFSDLKIQYSIYDNYADLEGLKKEVIEKKMDFGVCISENCDKAIIIDENANIISTQMYESIKALILISVYKFKTIVAPVNSSKALKYIAKRYNCKYVKSKISERYILNEYILNEKDKNIKEVLFSYLSSTDALNIVINIINILARGKIKLSELMERIPNYILREKEIACSWDNKGKIMRSLIEENISKSIELIEGIKVNYEDAWVLIIPDSDEPICKIYAESNDEEKTDKIINEFESEIELFMKN
protein production: failed

PFGSTSGSLFGPSSFTAAPTGTTIKFNPPTGTDTMVKAGVSTNISTKHQCITAMKEYESKSLEELRLEDYQANRKGPQNQVGAGTTTGLFGSSPATSSATGLFSSSTTNSGFAYGQNK
protein production: failed

MQTASRAHADSRHGLFLILFSAMLWGTVGITTKALYGLADTTPLSIGFFRLALAVPVLVAACRLATGPAMFRVARRDLGTMIVVGAMTALYQVCYFAAIRQIGVAAATLVTLCTAPVIVALLSAILTGERPSGRVLLSLACALAGTALLVGLRPLAGEGGNIPLGIAQALGSAFSYASVTVASRTLAGRYHPLQPVAIGFAAGALFLLPTALADGLVLTYPAAGWVLLLYLGVVPTALAYALFLAGMRTTTATAASICTLLEPLVSTVLAWLIFGERLGPLGAVGAVLLFGAIGLLARPVRRRQSSAA
protein production: failed

MEKGTLVEFRVQGDRRLGVVDRPDGKTRWFVVDERGQSHSLAPRQITYTVNGNTYKPSEIDRFLEEVKPYLDPSSLEVAWELLVEDGETVTPSQMANLLFSESNSAPSYAAHCLLSDDKLYFKQKGDAYEPRTAAQVADRKHQIEVEALKARGQQEFLTRVEQALQGEAVEWQRHDRQRLEGLEKYGTLLADIVKVGLNYDSLARAYPPPAPVLETMNMLGRPATPQGAFQLLVDLGWWSATENLFLRRSSIPVQFPSKVLEVAQQRLDFPPTDLDTNRLDLTHLKVYTVDDESTTEIDDGLSWEKLPDDRERLWVHIADPTRYLAPEDDLDLEARKRGSTVYLPTGMIPMFPEVLATGPMSLVQGRVCCALSFGVVLDGTGAVQDFTIHPSLIKPTYRLTYEDVDEMLELGVQAEPEIAAIATWATKRKSWRYNQGAISINMPEAMIKVKNDDISIDILDDSRSRQLVAEMMILAGEVAARYGQVHNIPLPFRGQPQPELPPEDELLRLPAGFVRACAMRRCMPKSEMSITPVRHAGLGLDTYTQATSPIRRYSDLLTHFQLKAHLRGEVPPFTAEELKEVMMTVTSTTQELTMVERQTNRYWALEYLRRHPEEIWQVTVLMWLREDSNLALILLEDLGLQLPMVFKRSVRLGEQVLVKVSISDPQKDVIQFQEIIYQEAQTAAN
protein production: failed
